Assay results as given in article PMC3673994 (PLoS ONE, 2013).

Target: T1, human mtRNase P (TRMT10C-SDR5C1 and PRORP) (Homo sapiens, UniProt Q7L0Y3+Q99714)
T1 construct: made in house; host or cells: E. coli
T1 sequence (Q99714 1-261): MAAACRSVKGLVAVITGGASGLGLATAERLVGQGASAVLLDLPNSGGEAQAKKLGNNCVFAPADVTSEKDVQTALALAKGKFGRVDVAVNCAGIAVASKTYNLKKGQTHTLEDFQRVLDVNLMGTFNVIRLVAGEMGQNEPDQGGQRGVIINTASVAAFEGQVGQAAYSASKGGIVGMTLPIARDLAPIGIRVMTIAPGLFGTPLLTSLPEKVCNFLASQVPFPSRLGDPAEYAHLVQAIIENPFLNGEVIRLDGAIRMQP
T1 sequence (Q7L0Y3 40-403 partner): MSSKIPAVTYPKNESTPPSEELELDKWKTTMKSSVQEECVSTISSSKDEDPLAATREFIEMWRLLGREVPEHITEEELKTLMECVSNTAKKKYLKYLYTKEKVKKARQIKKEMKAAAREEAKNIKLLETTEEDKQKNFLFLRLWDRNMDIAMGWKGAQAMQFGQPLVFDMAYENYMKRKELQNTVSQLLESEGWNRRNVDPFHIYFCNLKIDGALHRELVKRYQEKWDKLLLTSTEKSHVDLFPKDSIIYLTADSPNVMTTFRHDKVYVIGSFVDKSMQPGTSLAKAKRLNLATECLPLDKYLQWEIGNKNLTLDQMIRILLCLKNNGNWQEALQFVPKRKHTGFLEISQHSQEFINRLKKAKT
Assay: RNase P assay, (mt)tRNA^His precursor cleavage
Type: biochemical
Conditions: freshly dissolved fragments, up to 10 µM; three independent experiments
Source text: Samples for analysis were withdrawn at defined intervals or at known linear-range time-points and phosphor imaging data quantitatively analyzed with ImageQuant TL 7 (GE Healthcare).

effect on tRNA 5′-end processing by mtRNase P | Substance
none of the two affected | Aβ25–35: synthetic Aβ peptide fragment corresponding to amino acids 25–35 (rPeptide) (GSNKGAIIGLM; Amyloid-beta protein 40; UniProt P05067 696-706, looked up, fragment)
none of the two affected | Aβ1–28: synthetic Aβ peptide fragment, amino acids 1–28 (rPeptide)
